Consider 4 proteins from publication PMC5841405 (Nature Communications, 2018).

Data set [1] concerns the molecule itself. In words: SEC-MALS; Superose 6 10/300 GL, 20 mM Tris pH 7.5, 100 mM NaCl, 1 mM DTT. On the technique in general: Size exclusion chromatography separates by hydrodynamic size, large species first.
Data set [2] concerns the molecule itself. In words: ITC; titration of the protein into buffer (dilution); dimer to monomers; 20 mM HEPES pH 7.5, 100 mM NaCl, 0.25 mM TCEP.

B1: Hook1_(11–443) (domain or fragment, human, UniProt Q9UJC3-1 11-443, looked up)
chain: KLPLCDSLMIWLQTFNTASPCQDVKQLTSGVAMAQVLHQIDAAWFNESWLSRIKEDVGDNWRIKASNVKKVLQGIMSYYHEFLGQQISEALIPDLNQITECSDPVELGRLLQLILGCAINCEKKQEHIQNIMTLEESVQHVVMTAIQELMSKEILSSPPNDAVGELEQQLKRALEELQEALAEKEELRQRCEELDMQVTTLQDEKNSLVSENEMMNEKLDQLDGSFDDPNTVVAKKYFHAQLQLEQLQEENFRLEAAKDDYRVHCEELEKQLIEFQHRNDELTSLAEETRALKDEIDVLRATSDKANKLESTVEIYRQKLQDLNDLRKQVKTLQETNMMYMHNTVSLEEELKKANAARTQLETYKRQVQDLHVKLSSESKRADTLAFEMKRLEEKHEALLKEKERLIEQRDTLKETNEELRCSQVQQDHLNQT
notes: human Hook1, UniProt Q9UJC3-1, residues 11-443 (extends to the end of CC2); Dimeric by SEC-MALS; source: E. coli BL21 (DE3), purified (amylose column, TEV cleavage, gel filtration)
The term stoichiometry N denotes the number of molecules, sites or subunits per partner or assembly. B1: in data set [1], the “stoichiometry N” value is 2.

B2: Spindly_(1–142) (domain or fragment, human, UniProt Q96EA4-1 1-142, looked up)
chain: MEADIITNLRCRLKEAEEERLKAAQYGLQLVESQNELQNQLDKCRNEMMTMTESYEQEKYTLQREVELKSRMLESLSCECEAIKQQQKMHLEKLEEQLSRSHGQEVNELKTKIEKLKVELDEARLSEKQLKHQVDHQKELLS
notes: human Spindly, UniProt Q96EA4-1, residues 1-142 (includes the CC1-Box); Cloned in pCold1; source: E. coli BL21 (DE3), purified (Ni-NTA, TEV cleavage, Superdex 75)
On to B2, for which the “stoichiometry N” value in data set [1] is 2.

B3: BICD2_(1–98) (domain or fragment, human, UniProt Q8TD16-1 1-98, looked up)
chain: MSAPSEEEEYARLVMEAQPEWLRAEVKRLSHELAETTREKIQAAEYGLAVLEEKHQLKLQFEELEVDYEAIRSEMEQLKEAFGQAHTNHKKVAADGES
notes: human BICD2, UniProt Q8TD16-1, residues 1-98 (includes the CC1-Box); Purified 'as described above' (pMAL-c2x); source: E. coli BL21 (DE3), purified (amylose column, TEV cleavage, gel filtration)
On to B3, for which the “stoichiometry N” value in data set [1] was 2.

B4: Hook1_(11–238) (domain or fragment, human, UniProt Q9UJC3-1 11-238, looked up)
chain: KLPLCDSLMIWLQTFNTASPCQDVKQLTSGVAMAQVLHQIDAAWFNESWLSRIKEDVGDNWRIKASNVKKVLQGIMSYYHEFLGQQISEALIPDLNQITECSDPVELGRLLQLILGCAINCEKKQEHIQNIMTLEESVQHVVMTAIQELMSKEILSSPPNDAVGELEQQLKRALEELQEALAEKEELRQRCEELDMQVTTLQDEKNSLVSENEMMNEKLDQLDGSFDD
notes: human Hook1, UniProt Q9UJC3-1, residues 11-238 (Hook domain and CC1 region); In equilibrium between dimers and monomers; source: E. coli BL21 (DE3), purified (amylose column, TEV cleavage, gel filtration)
What is called Kd is the concentration at which binding is half-saturated. Higher therefore signals lower affinity. For the protein B4, the Kd in data set [2] was 2100 nM. That is a single-digit micromolar value.
